Data from paper PMC7473855.

Biological target: Ty1 nanobody, biotinylated on the C-terminus (alpaca)
Assay: BLI; comparative binding test; biotinylated nanobody on streptavidin (SAX) biosensors at about 0.7 nm, dipped into monomeric RBD at 550 nM; 2xPBS with 0.05% Tween-20; Octet RED

Sequence of Ty1 nanobody, biotinylated on the C-terminus (alpaca) (VHH, as listed by the source): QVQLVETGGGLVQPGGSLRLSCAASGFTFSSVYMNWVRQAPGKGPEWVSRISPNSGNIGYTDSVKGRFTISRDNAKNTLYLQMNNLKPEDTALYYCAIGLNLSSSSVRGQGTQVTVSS

Substance: SARS-CoV-2 spike receptor-binding domain (RBD) (from UniProt P0DTC2 319-541) (domain or fragment)
- BLI response at 550 nM RBD: 1.5 nm
